Results as given in publication PMC8298264, “Function of cofactor Akirin2 in the regulation of gene expression in model human neutrophil-like HL60 cells” (Bioscience Reports, 2021).

B1: sp¦Q9NVH1¦DJC11_HUMAN (protein, UniProt Q9NVH1 2-559, looked up)
DnaJ homolog subfamily C …: ATALSEEELDNEDYYSLLNVRREASSEELKAAYRRLCMLYHPDKHRDPELKSQAERLFNLVHQAYEVLSDPQTRAIYDIYGKRGLEMEGWEVVERRRTPAEIREEFERLQREREERRLQQRTNPKGTISVGVDATDLFDRYDEEYEDVSGSSFPQIEINKMHISQSIEAPLTATDTAILSGSLSTQNGNGGGSINFALRRVTSAKGWGELEFGAGDLQGPLFGLKLFRNLTPRCFVTTNCALQFSSRGIRPGLTTVLARNLDKNTVGYLQWRWGIQSAMNTSIVRDTKTSHFTVALQLGIPHSFALISYQHKFQDDDQTRVKGSLKAGFFGTVVEYGAERKISRHSVLGAAVSVGVPQGVSLKVKLNRASQTYFFPIHLTDQLLPSAMFYATVGPLVVYFAMHRLIIKPYLRAQKEKELEKQRESAATDVLQKKQEAESAVRLMQESVRRIIEAEESRMGLIIVNAWYGKFVNDKSRKSEKVKVIDVTVPLQCLVKDSKLILTEASKAGLPGFYDPCVGEEKNLKVLYQFRGVLHQVMVLDSEALRIPKQSHRIDTDG
B2: sp¦P11177¦ODPB_HUMAN (protein, UniProt P11177 31-359, looked up)
Pyruvate dehydrogenase E1 …: LQVTVRDAINQGMDEELERDEKVFLLGEEVAQYDGAYKVSRGLWKKYGDKRIIDTPISEMGFAGIAVGAAMAGLRPICEFMTFNFSMQAIDQVINSAAKTYYMSGGLQPVPIVFRGPNGASAGVAAQHSQCFAAWYGHCPGLKVVSPWNSEDAKGLIKSAIRDNNPVVVLENELMYGVPFEFPPEAQSKDFLIPIGKAKIERQGTHITVVSHSRPVGHCLEAAAVLSKEGVECEVINMRTIRPMDMETIEASVMKTNHLVTVEGGWPQFGVGAEICARIMEGPAFNFLDAPAVRVTGADVPMPYAKILEDNSIPQVKDIIFAIKKTLNI
B3: sp¦O14776¦TCRG1_HUMAN (protein, UniProt O14776 1-1098, looked up)
Transcription elongation …: MAERGGDGGESERFNPGELRMAQQQALRFRGPAPPPNAVMRGPPPLMRPPPPFGMMRGPPPPPRPPFGRPPFDPNMPPMPPPGGIPPPMGPPHLQRPPFMPPPMSSMPPPPGMMFPPGMPPVTAPGTPALPPTEEIWVENKTPDGKVYYYNARTRESAWTKPDGVKVIQQSELTPMLAAQAQVQAQAQAQAQAQAQAQAQAQAQAQAQAQAQAQAQAQAQAQAQAQAQAQAQAQAQAQAQAQVQAQVQAQVQAQAVGASTPTTSSPAPAVSTSTSSSTPSSTTSTTTTATSVAQTVSTPTTQDQTPSSAVSVATPTVSVSTPAPTATPVQTVPQPHPQTLPPAVPHSVPQPTTAIPAFPPVMVPPFRVPLPGMPIPLPGVAMMQIVSCPYVKTVATTKTGVLPGMAPPIVPMIHPQVAIAASPATLAGATAVSEWTEYKTADGKTYYYNNRTLESTWEKPQELKEKEKLEEKIKEPIKEPSEEPLPMETEEEDPKEEPIKEIKEEPKEEEMTEEEKAAQKAKPVATAPIPGTPWCVVWTGDERVFFYNPTTRLSMWDRPDDLIGRADVDKIIQEPPHKKGMEELKKLRHPTPTMLSIQKWQFSMSAIKEEQELMEEINEDEPVKAKKRKRDDNKDIDSEKEAAMEAEIKAARERAIVPLEARMKQFKDMLLERGVSAFSTWEKELHKIVFDPRYLLLNPKERKQVFDQYVKTRAEEERREKKNKIMQAKEDFKKMMEEAKFNPRATFSEFAAKHAKDSRFKAIEKMKDREALFNEFVAAARKKEKEDSKTRGEKIKSDFFELLSNHHLDSQSRWSKVKDKVESDPRYKAVDSSSMREDLFKQYIEKIAKNLDSEKEKELERQARIEASLREREREVQKARSEQTKEIDREREQHKREEAIQNFKALLSDMVRSSDVSWSDTRRTLRKDHRWESGSLLEREEKEKLFNEHIEALTKKKREHFRQLLDETSAITLTSTWKEVKKIIKEDPRCIKFSSSDRKKQREFEEYIRDKYITAKADFRTLLKETKFITYRSKKLIQESDQHLKDVEKILQNDKRYLVLDCVPEERRKLIVAYVDDLDRRGPPPPPTASEPTRRSTK
B4: sp¦O15173¦PGRC2_HUMAN (protein, UniProt O15173 1-223, looked up)
Membrane-associated …: MAAGDGDVKLGTLGSGSESSNDGGSESPGDAGAAAEGGGWAAAALALLTGGGEMLLNVALVALVLLGAYRLWVRWGRRGLGAGAGAGEESPATSLPRMKKRDFSLEQLRQYDGSRNPRILLAVNGKVFDVTKGSKFYGPAGPYGIFAGRDASRGLATFCLDKDALRDEYDDLSDLNAVQMESVREWEMQFKEKYDYVGRLLKPGEEPSEYTDEEDTKDHNKQD
B5: sp¦P48449¦LSS_HUMAN (protein, UniProt P48449 2-732, looked up)
Lanosterol synthase: TEGTCLRRRGGPYKTEPATDLGRWRLNCERGRQTWTYLQDERAGREQTGLEAYALGLDTKNYFKDLPKAHTAFEGALNGMTFYVGLQAEDGHWTGDYGGPLFLLPGLLITCHVARIPLPAGYREEIVRYLRSVQLPDGGWGLHIEDKSTVFGTALNYVSLRILGVGPDDPDLVRARNILHKKGGAVAIPSWGKFWLAVLNVYSWEGLNTLFPEMWLFPDWAPAHPSTLWCHCRQVYLPMSYCYAVRLSAAEDPLVQSLRQELYVEDFASIDWLAQRNNVAPDELYTPHSWLLRVVYALLNLYEHHHSAHLRQRAVQKLYEHIVADDRFTKSISIGPISKTINMLVRWYVDGPASTAFQEHVSRIPDYLWMGLDGMKMQGTNGSQIWDTAFAIQALLEAGGHHRPEFSSCLQKAHEFLRLSQVPDNPPDYQKYYRQMRKGGFSFSTLDCGWIVSDCTAEALKAVLLLQEKCPHVTEHIPRERLCDAVAVLLNMRNPDGGFATYETKRGGHLLELLNPSEVFGDIMIDYTYVECTSAVMQALKYFHKRFPEHRAAEIRETLTQGLEFCRRQQRADGSWEGSWGVCFTYGTWFGLEAFACMGQTYRDGTACAEVSRACDFLLSRQMADGGWGEDFESCEERRYLQSAQSQIHNTCWAMMGLMAVRHPDIEAQERGVRCLLEKQLPNGDWPQENIAGVFNKSCAISYTSYRNIFPIWALGRFSQLYPERALAGHP
B6: sp¦Q9H3N1¦TMX1_HUMAN (protein, UniProt Q9H3N1 27-280, looked up)
Thioredoxin-related …: RRSNVRVITDENWRELLEGDWMIEFYAPWCPACQNLQPEWESFAEWGEDLEVNIAKVDVTEQPGLSGRFIITALPTIYHCKDGEFRRYQGPRTKKDFINFISDKEWKSIEPVSSWFGPGSVLMSSMSALFQLSMWIRTCHNYFIEDLGLPVWGSYTVFALATLFSGLLLGLCMIFVADCLCPSKRRRPQPYPYPSKKLLSESAQPLKKVEEEQEADEEDVSEEEAESKEGTNKDFPQNAIRQRSLGPSLATDKS
B7: sp¦Q15758¦AAAT_HUMAN (protein, UniProt Q15758 1-541, looked up)
Neutral amino acid …: MVADPPRDSKGLAAAEPTANGGLALASIEDQGAAAGGYCGSRDQVRRCLRANLLVLLTVVAVVAGVALGLGVSGAGGALALGPERLSAFVFPGELLLRLLRMIILPLVVCSLIGGAASLDPGALGRLGAWALLFFLVTTLLASALGVGLALALQPGAASAAINASVGAAGSAENAPSKEVLDSFLDLARNIFPSNLVSAAFRSYSTTYEERNITGTRVKVPVGQEVEGMNILGLVVFAIVFGVALRKLGPEGELLIRFFNSFNEATMVLVSWIMWYAPVGIMFLVAGKIVEMEDVGLLFARLGKYILCCLLGHAIHGLLVLPLIYFLFTRKNPYRFLWGIVTPLATAFGTSSSSATLPLMMKCVEENNGVAKHISRFILPIGATVNMDGAALFQCVAAVFIAQLSQQSLDFVKIITILVTATASSVGAAGIPAGGVLTLAIILEAVNLPVDHISLILAVDWLVDRSCTVLNVEGDALGAGLLQNYVDRTESRSTEPELIQVKSELPLDPLPVPTEEGNPLLKHYRGPAGDATVASEKESVM

Test system: human HL60 cells
Experiment: SWATH-MS proteomics, differential protein representation, akirin2 KO vs WT HL60 cells
Format: cell-based
Conditions: akirin2 KO vs WT HL60 cells
Method in brief: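 Read-out is label-free SWATH-MS protein area, globally normalized to total detected-protein area, with identifications held at 1% FDR against a library from information-dependent acquisition.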

[1] = SWATH-MS, under-represented in KO
[2] = sheet "Under-represented in KO"

Row | Molecule | Fold Change [1] | Log (Fold Change) [1] | Fold Change [2] | Log (Fold Change) [2]
1 | B1 | 0.7368 | -0.1326 | – | –
2 | B2 | 0.7344 | -0.1341 | – | –
3 | B3 | 0.7373 | -0.1323 | – | –
4 | B4 | 0.7369 | -0.1326 | – | –
5 | B5 | 0.7416 | -0.1298 | – | –
6 | B6 | 0.7331 | -0.1348 | – | –
7 | B7 | – | – | 0.3333 | -0.4771
